Test results: PMC5521178
pKd: −log10 of the molar value.

Columns and labels:
Experiment in all cases: fluorescence polarisation
[1] = target: FITC-labeled full-length caspase-7 C186A (UniProt P55210)
[2] = target: FITC-labeled full-length caspase-7 C186A phosphorylated by autoactivated PAK2 (UniProt P55210)
[3] = target: FITC-labeled full-length caspase-7 S30A/C186A (UniProt P55210)

Q: With “caspase-9 constitutive dimer C287A (from UniProt P55211 1-416) (enzyme)” as the substance, how does the pKd [1] read?
A: 5.74

Q: What about the pKd [2] of the same substance?
A: < 4.57

Q: What about the pKd [3] of the same substance?
A: 5.77
